In general, Kd refers to a measure of binding affinity in units of concentration. Low values mean higher affinity, high ones lower affinity.

Holding throughout (assay): BLI
Experiment [1] deals with T1, human protein arginine deiminase 4 (hPAD4), wild type (human, UniProt Q9UM07 1-663, biotin on the N-terminal AviTag).
Experiment [2] concerns the target T1, human protein arginine deiminase 4 …. The source holds these as a separate data set.
For experiment [3] the target is unchanged. This is another data set of the same source.
Experiment [4] deals with hPAD4 R8E–Y435A double mutant (human, UniProt Q9UM07 1-663, R8E | Y435A).
Chain of hPAD4 R8E–Y435A double mutant (Q9UM07 whole entry R8E/Y435A): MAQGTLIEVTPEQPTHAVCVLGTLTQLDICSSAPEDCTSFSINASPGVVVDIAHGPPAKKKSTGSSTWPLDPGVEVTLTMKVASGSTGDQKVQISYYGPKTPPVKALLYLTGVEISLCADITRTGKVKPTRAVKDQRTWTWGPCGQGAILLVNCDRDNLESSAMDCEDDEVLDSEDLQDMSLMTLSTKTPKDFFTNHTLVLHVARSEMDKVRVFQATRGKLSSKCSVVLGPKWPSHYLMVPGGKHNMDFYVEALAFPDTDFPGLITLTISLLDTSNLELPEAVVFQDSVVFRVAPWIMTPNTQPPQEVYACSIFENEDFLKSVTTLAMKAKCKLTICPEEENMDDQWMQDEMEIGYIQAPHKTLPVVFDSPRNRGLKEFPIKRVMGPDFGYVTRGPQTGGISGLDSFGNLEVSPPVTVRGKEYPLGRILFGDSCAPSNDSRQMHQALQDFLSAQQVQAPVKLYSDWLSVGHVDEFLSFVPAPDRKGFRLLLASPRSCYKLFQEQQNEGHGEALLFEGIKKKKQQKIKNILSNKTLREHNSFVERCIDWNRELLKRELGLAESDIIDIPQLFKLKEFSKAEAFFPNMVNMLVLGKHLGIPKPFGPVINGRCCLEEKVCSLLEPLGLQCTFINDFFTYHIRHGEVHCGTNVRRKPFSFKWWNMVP
Another experiment addresses hPAD4 N438R (human, UniProt Q9UM07 1-663, N438R).
Another experiment concerns the target hPAD4 Y435A (human, UniProt Q9UM07 1-663, Y435A).

Changes are numbered by the printed parent chain. Read-outs that look alike come from different tables or passages of the source.

T1 sequence (Q9UM07 whole entry): as the sequence (Q9UM07 whole entry R8E/Y435A) above, with E8R, A435Y counted along it
Chain of hPAD4 Y435A (Q9UM07 whole entry Y435A): as the sequence (Q9UM07 whole entry R8E/Y435A) above, with E8R counted along it
Chain of hPAD4 N438R (Q9UM07 whole entry N438R): as the sequence (Q9UM07 whole entry R8E/Y435A) above, with E8R, A435Y, N438R counted along it

B1: E3 (affinity-matured variant of hI365) (antibody, V domains shown)
VH: EVQLVESGGGLVQPGGSLRLSCAASGFNFFYSIHWVRQAPGKGLEWVASISPYTDYTSYADSVKGRFTISADTSKNTAYLQMNSLRAEDTAVYYCARKHPGSYPFWGFALDYWGQGTLVTVSS
VL: DIQMTQSPSSLSASVGDRVTITCRASQSVSSAVAWYQQKPGKAPKLLIYSASSLYSGVPSRFSGSRSGTDFTLTISSLQPEDFATYYCQQSSSSLVTFGQGTKVEIK
Consider B1, for which the Kd in experiment [1] was found to be 2.4 nM.

B2: hI365 IgG (antibody, V domains shown)
VH: B1 VH with F30Y, T54S, D55G, F108W
VL: B1 VL
Consider B2, for which the Kd in experiment [2] was 1.8 nM.

B3: hA362 Fab (Fab, V domains shown)
VH: EVQLVESGGGLVQPGGSLRLSCAASGFNVSYYSIHWVRQAPGKGLEWVASISPYYGSTYYADSVKGRFTISADTSKNTAYLQMNSLRAEDTAVYYCARHPYRKGYSGLDYWGQGTLVTVSS
VL: DIQMTQSPSSLSASVGDRVTITCRASQSVSSAVAWYQQKPGKAPKLLIYSASSLYSGVPSRFSGSRSGTDFTLTISSLQPEDFATYYCQQSSYLPLFTFGQGTKVEIK
With B3, the Kd came out at 1.7 nM in experiment [3], 269 nM in experiment [4], 1.56 nM with hPAD4 N438R and 17.5 nM with hPAD4 Y435A.

B4: hA362 IgG (antibody, V domains shown)
VH: B3 VH
VL: B3 VL
Take B4: in experiment [2], the affinity, expressed as Kd, was 0.001 nM.

B5: E6 (affinity-matured variant of hI365) (antibody, V domains shown)
VH: B1 VH with F30Y, Y56R, S102R, F105N
VL: B3 VL with S92M, Y93S, L94S, P95Q, F97V
Consider B5, for which the Kd in experiment [1] is 1.3 nM.

(Values after publication PMC11142921 (2024).)
